Test results: the nanobody polyreactivity screen of Harvey et al. (2022)

Test: yeast display, Sf9 membrane polyspecificity reagent, FACS + sequencing; frameworks hold sequencing errors
Outline: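 Galactose induction of a Saccharomyces cerevisiae BJ5465 synthetic nanobody display library ran 36–48 hours. The cells were then stained for 1 hour at 4 °C with 10% biotinylated, detergent-solubilized Sf9 membrane reagent, pulled down on streptavidin microbeads and FACS-sorted into low and high (top ~1%) gates on expression and reagent-binding fluorescence. Labels for polyreactivity follow the gate of origin.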

| Sequence | polyreactivity (PSR sort gate) |
| --- | --- |
| QVHLVESGGGLVQAGGSLRLSCAASGSIFIYNAMGWYRQAPGKERELVAAISWSGDSTYYADSVKGRFTISRDNAKNTVYLQMNSLKPEDTAVYYCNAKPSRKWGRGTGKQYDYWGQGTQVTVSS | high polyreactivity |
| QVQLVESGGGLVQAGGSLRLSRAASGITFRFYAMGWYRQAPGKERQVVARISSSGSRTYYADSVKVRFTISRDNAKNTVYLQMNSLKPEDTAVYYCNAVRRRYQSLLQGDYWGQGTQVTVSS | high polyreactivity |
| QVQLVESGGGLVQAGGSLRLSCAASGSTFQRYAMGWYRQAPGKERELVAAITWSNGSTYYADSVKGRFTISRDNAKNTVYLQMNSLKPEDTAVYYCDAEVHLGGDYWGQGTQVTVSS | low polyreactivity |
| QVQLVESGGGLVQAGGSLRLSCAASGSIFTPYAMGWYRQAPGKERELVADIDASGGGTYADSVKGRFTISRDNAKNTVYLQMNSLKPEDTAVYYCNTDPYSSAWYNYDYWGQGTQVTVSS | low polyreactivity |
| QVQLVESGGGLVQAGGSLRLSCAASGRIFYPNALGWYRQAPGTERELVAAITWRGGRTYYADSVKGRFTISRDNAKNTVYLQMNSLKPEDTAVYYCNAVAPGKYNHWGQGTQVTVSS | high polyreactivity |
| QVQLVESGGGLVQAGGSLRLSCAASGRTFRPYAMGWYRQAPGTERELVARITSGGGRTYYADSVKGRFTISRDNAKNTVYLQMNSLKPEDNAVYYCNKAIYSLYRDGYTNFDYWGQGTQVTVSS | high polyreactivity |
| QVQLVESGGGLVQAGGSLRLSCAASGSTFYPNSMGWYRQAPGKERELVDAISWSGGYTYYADSVKGRFTISRDNAKNTVFLQMNSLNPEDTAVYYCAAREFLYSWYTHLKYDYWGQGTQVTVSS | low polyreactivity |
| QVQLVESGGGLVQAGGSLRLSCAASGSTFTQKAMGWYRQAPGKERELVAAISSSGTRTYYADSVKGRFTISRDNAKNTVYLQMNSLKPEDTAVYYCNARYRIGSWYEFGSWGQGTQVTVSS | high polyreactivity |
| QVQLVESGGGLVQAGGSLRLSCAASGFTLQQYTMGWYIQAPGKERELVAAISTSGVRTYYADSVKGRFTISRDNAKNTVYLQMNSLKPEDTAVYYCNAAWVYGIGWYSGYDYWGQGTQVTVSS | high polyreactivity |
| QVQLVESGGGLGQAGGSLRLSCAASGYTFAGYAMGWYRPAPGKETELVAAISQSGGRTNYADSVKGRFTISRDNSKNTVYLQMNSLKPADTAVYYCAAEETSYTSEYWGQGTQVTVSS | high polyreactivity |
| QVQLVESGGGLVQAGGSLRLSCAASGSTLYSYVMGWYRQAPGKERELVAAIRSSGGSTYYADSVKGRFTISRDNAKNTVYLQMNSLKPEDTAVYYCAKEWKVDVASKFLYHYYYWGQGTQVTVSS | high polyreactivity |
| QVQLVESGGGLVQAVASIRLSCAASGITIYLYAKGWSRQAPGKARELVATITSRSGSTYYADSVKGRFTISRDNAKNTVYLQMNSLKPEDTAVYYCAAKYPRYLYGYWGQGTQVTVSS | high polyreactivity |
| QVQLVESGGGLVQAGGSLRLSCAASGSIFQYYAMGWYRQPPGKEREFVAAITSDGSSTYYADSVKGRFTISRDNAKNTVYLQMNSLKPEDTAVYDCAAGWVGDRRPSMYYWGQGTQVTVSS | high polyreactivity |
| QDQLVESGGGLVQAGGSLRLSCAASGSIFRTYAMGWYRQAPGKERELVATITYSDGNTYYADSVKGRFTISRDNAKNTVYLQMNSLKPEDTAFYYSNADGIYASISGYRYDYWGQGTLVTVSS | low polyreactivity |
| QVQLVESGGGKVQAGGSLRLSCPPSGRTFYYYAMGWYRQAPGKVRELVAVIRSSGDSTYYADSVKGRFTISRDNEKNTVYLQMKSLKPDDTAVDYCAADAPSRSYSWHPRYYYWGQGSQVTVSS | low polyreactivity |
| QVQLVESGGGLEQAGGRLRLSCAASGSTFGGYAMGWFRQSPGTERQLVAAISGSGVRTYYADSVKGRFTISRDTAKNTVYLEMNSLNQEDTEVFYCAKRVRYPGDLYYYWGQGTQVTVSW | high polyreactivity |
| QVQLVESGGGVVQAGGSLRLSCAASGRIFYGNAMGWYRQAPGKERELVAAISSGTSTNYADSVKGRFTISRDNAKNTVYLQMTSLKPEDTAVYYCAAGSYSRYLYSLYFDFDYWGQGTQVTVSS | low polyreactivity |
| QVQLVESGGGLVQAGGSLRLSCAASGSTFYVNAMGWYRQAPGKERELVAAITSGGSTKYADSVKGRYTISCDNAKNTVYLQMNSLKPEDTAVDDCAAPRGRALSKVRYDDEYWGQGTQVTVSS | high polyreactivity |
| QVQLVESGGGLVQAGGSLRLSCAASGSTFEANAMGWYRQAPGKERELVAVITRTGGSTYYADSVKGRFTISRDNAKNTVYLQMNSLKPVDTAVYYCAADGVVPGRFFWPAHEYDYWGQGTQVTVSS | low polyreactivity |
| QVQLVESGGGLVQAGGSLRLSCAASGRTFSKYTMGRYRQAHGKEMEFGAAISYSGGSTYYADSVKGRFTISRDYAKKTVYLQMNSLKPEDTAVYYCAARASTYKYYYWGQGTQVTVSS | high polyreactivity |

| Sequence | polyreactivity (PSR sort gate) |
| --- | --- |
| QVQLEESGGGLVHAGGSLRLSCAASGFIFKANAMGWYRQAPGKEREFVASISSSGGSTYYADSVKGRFTISRDNAKNTVYLHMNSLKPEDTAVYYCAAYTGYRHSRINLGYWGQGTQVTVSS | high polyreactivity |
| QVQLVESGGGLVQAGGSLRLSCAASGRIFDVYAMGWYRQAPGKERELVAAITWSGTSTYYADSVKGRFTISRDNAKNTVYLQKNSLKPEDTAVYYCAAEVAYTDTEYFWYYYWGQGTQVTVSS | high polyreactivity |
| QVQLEESVGGLVQAGGSLRLSCAASGRIFRGYAMGWYRQAPGKETELVATISAIGGSTYADSVKGRFTISRDNAKNTVYLQKNSLKPEDTAVYYCNVRKVYRYQFRFEYWGQGTQVTVSS | high polyreactivity |
| QVQLVESGGGLVQAGGSLRLSCAASGYTFGTYDMGWYRQAPGKERELVAAISIGGSTNYADSVKGRFTISRDNAKNTVYLQKNSLKPEDTAVYYCAAEVNVGTLLLSVIVEDGDYWGQGTQVTVSS | low polyreactivity |
| QVQLVDTAGGLVQAGGILRLSCAASGSTMYGYAMGWYRQTPGKERELVAAINTGGSTNYADSVKGRFTISRDNAKNTVYLQMNSLKPDDTAVYYCAASYSLSFWDKDDYWGQGTQVTVSS | low polyreactivity |
| QVQLVESGGGLVQAGGSLRLSCAASGSIFWVNAMGWYRQAPGKERELVAAITWSAGSTYYADSVKGRFTISRDNANNTVYLQMNSLKPEDTAVYYFAAGVAWYYWTLDYWGQGTQVTVSS | low polyreactivity |
| QVQLVESGAGLVQAGGILRLSCAASGSTFIYNAMGWYIQAPGKERELVAAISARTGNTYYADSVKGRFTISRDNAKNTVYLQMNSLKPEDTAVYYCARRGFRRGGGPSRYYWYDYWGQGTQVTVSS | high polyreactivity |
| QVQLEESGGGLVQAGGSLRLSCAASGSIFRGYAMGWYRQAPGKERELVAAINWSGSSTYYADSVKGRFTISRDNAKNTVYLQMNSPKPEDTAVYYCARVYYNRNLGGDYWGQGTQVTVSS | low polyreactivity |
| QVQLVESGGGLVQAGGSLRLSCAASGRIFSYYAMGWYRQAPGKERELVAAISWNGGSTYYADSVKGRFTISRDNAKNTVYLQMNSLKPEDTAVYYCNRLGYRTGYERDYWGQGTQVTVSS | high polyreactivity |
| QVQLVESGGGLVQAGGSLRLSCAASGSTFSLYAMGWYRQAPGKERELVARISYTDGSTYYADSVKGRFTISRDNAKNTVYLPMNSLKPEDTAVYYCAADAWYSYTLEDSWGQGTQVTVSS | low polyreactivity |
| QDQLVESGGGLVQAGGSLRLSCAASGRIFGINAMGWYRQAPGKERELVAAISSGGSTYYADSVKGRFTISRDNAKNTVYLQMNILKPEDTAVYYCAKGPSWKYYSYTLDYWGKGTQVTVSS | low polyreactivity |
| QVQLVESGGGLVQAGGSLRLSCAASGRTSSSNAMGWYRQAPGKERELVATISRTGSTYYADSVKGRFTISRDNAKNTVYLQMNSLKPEDTSVYYCNRYFSEALLHGSCYNRYYYWGQGTQVTVSS | low polyreactivity |
| QVQLVESGGGLVQAGGSLRLSCAASGRIFRYYAMGWYRKAPGKERELVASISQRGGSTYYADSVKGRFTISRDNAKNTVYLQMNSLKPEDTAVYYCAARRSTVFILDYDWGQGTQVTVSS | high polyreactivity |
| QVQLVESGGVLVQARGSLRLSCAASGRTFRYYAMGWYRQAPGQEREMVATISWSGGRTSYADSVKGRFTISRDNAKNTVYLQMNSLKPEDTAVYDCAVESWLDADDSYPDSILVDYWGQGTQVTVSS | low polyreactivity |
| QVQLVESGGGLVQAGGSLRLSCAASGLALGWYRQAPGKERELVAVITSDGRTYYADSVKGRFTISRDNAKNTVYLQLNSLKPEDTAVYYCARDSRTIRYYAWFYPFRYDYWGQGTQVTVSS | low polyreactivity |
| QVQLVESGGGLVQAGGRLRLSCAASGLIFDSYAMGWYRQAPGKERELVAAITYTGGSTYYADSVKGRFTISRDNAKNTVYLQMNSLKPEDTAVYYCAARSQSDRYGYWGQGTQVTVSS | high polyreactivity |
| QVQLVESGGGLVQAGGSLRLSCAASGLIFLYNAMGWYRQAPGKERELVAAISSGGGRTYYADSVKGRFTISRDNAKNTVYLQMNSLKPEDTAVYYCNVASYAKKRWTMDYWGQGTQVTVSS | high polyreactivity |
| QVQLVESGGALVQAGGSLRLSCAASGSTSYTNAMGLYRHAPGKEREFVASISLSAGSTYYADSVKGRFKISRDNAKNTVYLQMNSLKPEDTAVYYCASESVAILGLVYPKGYGYWGQGTQVTVSS | low polyreactivity |
| QVQLVETGGGLFHAGGSLRLSCAASGRIFVGYAMGWYIQAPGKERELVAAINSGGRTNYADSVKGRFTISRYNAKNNVYLQMNSLKPEDTAVYYCAATLRPYSSFPNRYGYWGQGTQVTVSS | low polyreactivity |
| QVQLVESGGGLVQAGGSLRLSCAASGITISWYAMGWYRQAPGKERELVAAITRTAGTNYADSVKGRFTISRDNAKNTVYLQMNSLKPEDTAVYYCAAVGHGGLLYWRNYGYGYWGQGTQVTVSS | low polyreactivity |
